Results from patent US5985599.

target: mouse beta1 Fc(gamma)R encoded by pFc113 (mouse); test: sheep anti-mouse Ig rosetting on the cells of Table 5

“irrelevant antibody (background control of Table 5)” was tested, and the % rosette formation (background) was < 5%.

target: dimeric human IgG1 (myeloma protein, chemically cross-linked) (human) [IgG part: P01857]; test: direct binding of 125I-dimeric human IgG1 to transfected COS-7 cells

FcγRII Leu159-Ala (receptor) and FcγRII Phe160-Ala (receptor) are the same in Ka: 1e+07 M⁻¹ for the first, 1e+07 M⁻¹ for the second.

In the case of “human FcγRII (wild-type FcγRIIa) encoded by HFc3.0 (receptor)”, the Ka is reported as 1e+06 M⁻¹.

FcγRII Leu159-Ala (receptor) and FcγRII Phe160-Ala (receptor) are the same in fold increase of binding over wild-type FcγRII: 10 fold for the first, 10 fold for the second.

target: dimeric human IgG1 (myeloma protein, chemically cross-linked) (human) [IgG part: P01857]; test: direct binding of 125I-dimeric hIgG1 to transfected COS-7 cells, corrected for expression

First: FcγRII Arg/His131-Ala (receptor)
Second: FcγRII Asp133-Ala (receptor)
The percent binding compared to wild-type FcγRII (percent of wild-type) of the first is lower: 21.9 for the first, 114 for the second.

Compared with FcγRII Leu115-Ala (receptor), FcγRII Lys113-Ala (receptor) is lower in percent binding compared to wild-type FcγRII (percent of wild-type): 20.6 for the first, 15.9 for the second.

First: FcγRII Phe129-Ala (receptor)
Second: FcγRII Pro114-Ala (receptor)
The percent binding compared to wild-type FcγRII (percent of wild-type) of the first is lower: 8.2 for the first, 53.5 for the second.

Going from FcγRII Pro134-Ala (receptor) to FcγRII Val116-Ala (receptor), the percent binding compared to wild-type FcγRII (percent of wild-type) falls from 134 to 73.5.

Compared with FcγRII Arg/His131-Ala (receptor), FcγRII Phe129-Ala (receptor) is higher in percent decrease of hIgG1-dimer binding: 80% for the first, > 90% for the second.
